Measurements as given in US20210261636A1, “NEOANTIGENS EXPRESSED IN MULTIPLE MYELOMA AND THEIR USES” (Janssen Biotech, Inc., priority 2020, published 2021).

B1: PPTAAASQVRSPTTATGTAAAGSLRAQTSSRATTESTRATGHSSAICAIVPSRAPITWRCT (peptide)
chain: PPTAAASQVRSPTTATGTAAAGSLRAQTSSRATTESTRATGHSSAICAIVPSRAPITWRCT
notes: gene fusion FOSB-> KLF2
B2: TQRLPGHKVSNSCMTGLVLTFTKRDPFHKPVTWCGQLADVRQCMFHSIRERAHPLQRALATLNFFFVSFYTALYLTHPLLTLQTWEVVVTVCFSCWELCVPCDVLRRTCRGQR (peptide)
chain: TQRLPGHKVSNSCMTGLVLTFTKRDPFHKPVTWCGQLADVRQCMFHSIRERAHPLQRALATLNFFFVSFYTALYLTHPLLTLQTWEVVVTVCFSCWELCVPCDVLRRTCRGQR
notes: alternative splicing, BTBD3
B3: RQREVVDLVSPREPSRDRRAGGGDLAARPTGRASVWLLGVSVCTAVCRVSCCAGVSCFLFTGEEGPGYACSESWNSEGRPKWEAIVERTCDMGPYNGMCLQG (peptide)
chain: RQREVVDLVSPREPSRDRRAGGGDLAARPTGRASVWLLGVSVCTAVCRVSCCAGVSCFLFTGEEGPGYACSESWNSEGRPKWEAIVERTCDMGPYNGMCLQG
notes: alternative splicing, CTHRC1
B4: SLLIGALRITWKREAGRKSFFKCGLRVHMWKGLQFIEITRRNWMLIFQSCSLFGTSQYRSLTKKCQLCFRFKRVSSKGSDITDKREVTH (peptide)
chain: SLLIGALRITWKREAGRKSFFKCGLRVHMWKGLQFIEITRRNWMLIFQSCSLFGTSQYRSLTKKCQLCFRFKRVSSKGSDITDKREVTH
notes: alternative splicing, ARHGAP42
B5: EIEGSCHGGMITMDIKMGSYSCDYLKHSETLSAMVVSCGISFLFLFPRKKIAKLIFKEQVP (peptide)
chain: EIEGSCHGGMITMDIKMGSYSCDYLKHSETLSAMVVSCGISFLFLFPRKKIAKLIFKEQVP
notes: alternative splicing, EPHA6
B6: MSATTGSQDNPEGKRDPSRKFQEQKALPKRPPLQKNLRNGVGQHYPATLTSRTRNSIKMRHSRTTRARRPPPSPVLPWAASNSQARPETSSLSEKSPEV (peptide)
chain: MSATTGSQDNPEGKRDPSRKFQEQKALPKRPPLQKNLRNGVGQHYPATLTSRTRNSIKMRHSRTTRARRPPPSPVLPWAASNSQARPETSSLSEKSPEV
notes: alternative splicing, CSAG1
B7: RQREVVDLVKKDLVMRAVSLGTQRGDQNGRPSWSGHAIWARIMECAYKGQQECLVETGALGPMAFRVHLGSQVGMDSKEKRGNV (peptide)
chain: RQREVVDLVKKDLVMRAVSLGTQRGDQNGRPSWSGHAIWARIMECAYKGQQECLVETGALGPMAFRVHLGSQVGMDSKEKRGNV
notes: alternative splicing, CTHRC1
B8: GWKICREGIGPVMLTMTSGEWSFSFLEAICGVSREPVPRRRHCIWDTRGGVGLCEASCWRPTSEVG (peptide)
chain: GWKICREGIGPVMLTMTSGEWSFSFLEAICGVSREPVPRRRHCIWDTRGGVGLCEASCWRPTSEVG
notes: alternative splicing, STARD5
B9: YESPIFSRDRVNPGALSGSLGQARAACWRTLGSLKPGGEFRAAEQRRAGWVPGAPGFTCSLISSRFPRERFCLRHRSSWRGARRVQCVCPGQTEGLWL (peptide)
chain: YESPIFSRDRVNPGALSGSLGQARAACWRTLGSLKPGGEFRAAEQRRAGWVPGAPGFTCSLISSRFPRERFCLRHRSSWRGARRVQCVCPGQTEGLWL
notes: alternative splicing, WNT10A
B10: VYPVYQPVVSQAGLGELWQWASGKLRGYCWRRGQWHAYSIQCDPHPVFGEGACDCSETEAHGGCQSPRLESFPGQPPGFRGQRF (peptide)
chain: VYPVYQPVVSQAGLGELWQWASGKLRGYCWRRGQWHAYSIQCDPHPVFGEGACDCSETEAHGGCQSPRLESFPGQPPGFRGQRF
notes: gene fusion NDUFB8-> SEC31B

Columns and labels:
CD8+ T cells = experiment: Exogenous autologous healthy donor restimulation assay, TNFα and IFNγ production by CD8+ T cells; assay type: cell-based, human; design: Frequency (TNFα+ IFNγ+ CD8 T cells): unit not given here; conditions: for Fold change (CD8+) vs. DMSO: maximum CD8+ T-cell response (TNFα and IFNγ); for Fold change (CD8+) vs. DMSO / Frequency (TNFα+ IFNγ+ CD8 T cells): donor independent, peptide pool 10 μg/mL, healthy donors; for Frequency (TNFα+ IFNγ+ CD8 T cells): maximum CD8+ T-cell response; for Immunogenic (yes/no): positive if CD8+ and/or CD4+ double positive TNFα/IFNγ frequency >=3-fold over DMSO and at least 0.01%
Procedure, shortened: (§1)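 CD1c+ DCs from healthy donor PBMCs pulsed 2 h with 15-mer overlapping neoantigen peptide pools (10 μg/mL), irradiated 50 Gy, then co-cultured 12 days with autologous CD3+ T cells plus IL-15/IL-2. Restimulated day 11 with same pools, overnight with protein inhibitor; intracellular TNFα/IFNγ by flow. Positive: ≥3-fold over DMSO and ≥0.01% double-positive.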

CD4+ T cells = experiment: Exogenous autologous healthy donor restimulation assay, TNFα and IFNγ production by CD4+ T cells; assay type: cell-based, human; design: Frequency (TNFα+ IFNγ+ CD4 T cells): unit not given here; conditions: donor independent, peptide pool 10 μg/mL, healthy donors; for Fold change (CD4+) vs. DMSO: maximum CD4+ T-cell response (TNFα and IFNγ); for Frequency (TNFα+ IFNγ+ CD4 T cells): maximum CD4+ T-cell response
Procedure, shortened: as §1

Molecule | Fold change (CD8+) vs. DMSO (CD8+ T cells) | Frequency (TNFα+ IFNγ+ CD8 T cells) (CD8+ T cells) | Immunogenic (yes/no) (CD8+ T cells) | Fold change (CD4+) vs. DMSO (CD4+ T cells) | Frequency (TNFα+ IFNγ+ CD4 T cells) (CD4+ T cells)
IENEGGQVRSRPAPS [AS56, alternative splicing, ADGRE5] | 5 | 0.069 | Yes | 3.71 | 0.019
QLSVVTRDDYNSSELK [AS87, alternative splicing, BMP6] | 44.64 | 1.25 | Yes | 4.45 | 0.016
SEMVAHERYVFEATGNDSFRTLCLLMK [AS112, alternative splicing, CFAP54] | 35.03 | 0.062 | Yes | 7.92 | 0.012
B1 | 37.46 | 0.056 | Yes | 6.84 | 0.002
B2 | 17.3 | 0.77 | Yes | 7.26 | 0.025
B3 | 2700 | 0.27 | Yes | 57.613 | 0.072
B4 | 1100 | 0.29 | Yes | 15.34 | 0.1
B5 | 100 | 17 | Yes | 111.44 | 0.57
B6 | 6327.68 | 11.2 | Yes | 79.18 | 0.12
B7 | 288.14 | 0.51 | Yes | 223.78 | 0.16
B8 | 874.02 | 7.77 | Yes | 44.35 | 0.081
B9 | 38.74 | 0.095 | Yes | 12.303 | 0.071
B10 | 42.81 | 0.064 | Yes | 1.94 | 0.011
